Assay results taken from patent publication US20050079613A1, “Downregulation of cell surface glycoproteins by a family of human ubiquitin ligases” (Oregon Health & Science University, priority 2002, published 2005).

Tested on: Fas (CD95), MHC I, HLA-A2.1, CD4, transferrin receptor, B7.1
Assay: Surface glycoprotein panel on transfected HeLa cells, flow cytometry
Type: cell-based, human
Conditions: HeLa cells transfected with MARCH plasmid
Method: Flow cytometry. Cells were removed from tissue culture dishes with 0.05% Trypsin-EDTA (Invitrogen), washed with ice-cold PBS, and incubated with appropriate antibody for 30 minutes at 4° C. The cells were washed with ice-cold PBS and either resuspended in ice-cold PBS or incubated with PE-conjugated anti-mouse secondary antibody (DAKO) and washed again before analysis with a BD Biosciences (San Jose, Calif.) FACScalibur flow cytometer.
The ability to downregulate MHC I is common to KSHV-K3, KSHV-K5, MHV68-K3 and MV-M153R (Coscoy and Ganem, 2000, supra; Guerin et al., 2002, supra; Ishido et al., 2000b supra; Stevenson et al., 2000, supra). Additional substrates are ICAM-1 and B7.2 (but not B7.1) for KSHV-K5, as well as CD95 and CD4 for M153R (Coscoy and Ganem, 2001, supra; Guerin et al., 2002, supra; Ishido et al., 2000a, supra; Mansouri et al., 2003, supra). Since only low copy numbers were detected in HeLa cells for transcripts corresponding to each of the MARCH-proteins (FIG. 7C, and data not shown), HeLa cells were transfected with expression plasmids for MARCH-I, II, III, IV, V and VIII. Surface expression of selected glycoproteins was monitored upon transfection. […] Surface expression of the respective markers was analyzed by flow cytometry. […]

B1: MARCH-V: four-transmembrane human RING-CH protein, SEQ ID NOS:47 and 58 (protein, listed as Homo sapiens)
chain: MPDQALQQMLDRSCWVCFATDEDDRTAEWVRPCRCRGSTKWVHQACLQRWVDEKQRGNSTARVACPQCNAEYLIVFPKLGPVVYVLDLADRLISKACPFAAAGIMVGSIYWTAVTYGAVTVMQVVGHKEGLDVMERADPLFLLIGLPTIPVMLILGKMIRWEDYVLRLWRKYSNKLQILNSIFPGIGCPVPRIPAEANPLADHVSATRILCGALVFPTIATIVGKLMFSSVNSNLQRTILGGIAFVAIKGAFKVYFKQQQYLRQAHRKILNYPEQEEA
- reduction in surface levels of any of the glycoproteins of the panel: No reduction in surface levels
